Data: patent US20190314526A1

How the values were obtained:
[1] = biological target: AAV-2 capsid mutant E411A/T413A/G449A/N450A (rAAV-2 virion) (AAV-2) (UniProt P03135); experiment: cell-based or functional assay
[2] = biological target: AAV-2 capsid mutant D132N (rAAV-2 virion) (AAV-2) (UniProt P03135); experiment: cell-based or functional assay
[3] = biological target: AAV-2 capsid mutant V571K (rAAV-2 virion) (AAV-2) (UniProt P03135); experiment: A20/IgG sandwich ELISA: capture on coated Panglobulin, detection with A20-biotin; against wild type
[4] = biological target: AAV-2 capsid mutant H372K (rAAV-2 virion) (AAV-2) (UniProt P03135); experiment: all-human IgG ELISA, against wild type
[5] = biological target: AAV-2 capsid mutant R334A/G449A/N568A (rAAV-2 virion) (AAV-2) (UniProt P03135); experiment: all-human IgG ELISA, against wild type
[6] = biological target: AAV-2 capsid mutant S130T (rAAV-2 virion) (AAV-2) (UniProt P03135); experiment: all-human IgG ELISA, against wild type
[7] = biological target: AAV-2 capsid mutant R334A (rAAV-2 virion) (AAV-2) (UniProt P03135); experiment: all-human IgG ELISA, against wild type
[8] = biological target: AAV-2 capsid mutant R334A/G449A (rAAV-2 virion) (AAV-2) (UniProt P03135); experiment: all-human IgG ELISA, against wild type
[9] = biological target: AAV-2 capsid mutant G246A (rAAV-2 virion) (AAV-2) (UniProt P03135); experiment: all-human IgG ELISA, against wild type
[10] = biological target: AAV-2 capsid mutant E411A/T413A/G449A/N450A (rAAV-2 virion) (AAV-2) (UniProt P03135); experiment: all-human IgG ELISA, against wild type
[11] = biological target: AAV-2 capsid mutant N360H (rAAV-2 virion) (AAV-2) (UniProt P03135); experiment: all-human IgG ELISA, against wild type
[12] = biological target: AAV-2 capsid mutant N568A/V571A (rAAV-2 virion) (AAV-2) (UniProt P03135); experiment: all-human IgG ELISA, against wild type
[13] = biological target: AAV-2 capsid mutant E393D (rAAV-2 virion) (AAV-2) (UniProt P03135); experiment: all-human IgG ELISA, against wild type
[14] = biological target: AAV-2 capsid mutant N568A (rAAV-2 virion) (AAV-2) (UniProt P03135); experiment: all-human IgG ELISA, against wild type
[15] = biological target: AAV-2 capsid mutant D357E (rAAV-2 virion) (AAV-2) (UniProt P03135); experiment: all-human IgG ELISA, against wild type
[16] = biological target: AAV-2 capsid mutant R334A/N568A (rAAV-2 virion) (AAV-2) (UniProt P03135); experiment: all-human IgG ELISA, against wild type
[17] = biological target: AAV-2 capsid mutant D132N (rAAV-2 virion) (AAV-2) (UniProt P03135); experiment: all-human IgG ELISA, against wild type
[18] = biological target: AAV-2 capsid mutant G449A/N568A (rAAV-2 virion) (AAV-2) (UniProt P03135); experiment: all-human IgG ELISA, against wild type
[19] = biological target: AAV-2 capsid mutant H134Q (rAAV-2 virion) (AAV-2) (UniProt P03135); experiment: all-human IgG ELISA, against wild type
[20] = biological target: AAV-2 capsid mutant H372Q (rAAV-2 virion) (AAV-2) (UniProt P03135); experiment: all-human IgG ELISA, against wild type
[21] = biological target: AAV-2 capsid mutant S130A (rAAV-2 virion) (AAV-2) (UniProt P03135); experiment: all-human IgG ELISA, against wild type
[22] = biological target: AAV-2 capsid mutant T413K (rAAV-2 virion) (AAV-2) (UniProt P03135); experiment: all-human IgG ELISA, against wild type
[23] = biological target: AAV-2 capsid mutant E411A/T413A (rAAV-2 virion) (AAV-2) (UniProt P03135); experiment: all-human IgG ELISA, against wild type
[24] = biological target: AAV-2 capsid mutant N568K (rAAV-2 virion) (AAV-2) (UniProt P03135); experiment: all-human IgG ELISA, against wild type
[25] = biological target: AAV-2 capsid mutant V571K (rAAV-2 virion) (AAV-2) (UniProt P03135); experiment: all-human IgG ELISA, against wild type
[26] = biological target: AAV-2 capsid mutant G449A (rAAV-2 virion) (AAV-2) (UniProt P03135); experiment: all-human IgG ELISA, against wild type
[27] = biological target: AAV-2 with a wild-type capsid (rAAV-2 virion) (AAV-2) (UniProt P03135); experiment: all-human IgG ELISA, virus needed for half maximal OD, against wild type

With “purified human IgG from >10,000 donors (Panglobulin, ZLB Bioplasma AG)” the Fold decrease in neutralizing titer [1] was 1 fold, the Fold decrease in neutralizing titer [2] was 3.8 fold and the fold reduction of binding [3] was 100 fold. For the same substance, the Fold decrease in binding of human IgG [4] was 1 fold, the Fold decrease in binding of human IgG [5] was 1 fold and the Fold decrease in binding of human IgG [6] was 1 fold. The Fold decrease in binding of human IgG [7] was 1 fold, the Fold decrease in binding of human IgG [8] was 1 fold and the Fold decrease in binding of human IgG [9] was 1 fold. For the same substance, the Fold decrease in binding of human IgG [10] was 1 fold, the Fold decrease in binding of human IgG [11] was 1 fold and the Fold decrease in binding of human IgG [12] was 1 fold. It also gave a Fold decrease in binding of human IgG [13] of 1 fold, a Fold decrease in binding of human IgG [14] of 1 fold and a Fold decrease in binding of human IgG [15] of 1 fold. It also gave a Fold decrease in binding of human IgG [16] of 1 fold, a Fold decrease in binding of human IgG [17] of 1 fold and a Fold decrease in binding of human IgG [18] of 1 fold. The Fold decrease in binding of human IgG [19] was 1 fold, the Fold decrease in binding of human IgG [20] was 1 fold and the Fold decrease in binding of human IgG [21] was 1 fold. It also gave a Fold decrease in binding of human IgG [22] of 1 fold, a Fold decrease in binding of human IgG [23] of 1 fold and a Fold decrease in binding of human IgG [24] of 1 fold. The Fold decrease in binding of human IgG [25] was 10 fold, the Fold decrease in binding of human IgG [26] was 1 fold and the Fold decrease in binding of human IgG [27] was 1 fold.
